According to US20240366775A1, “HUMAN TRANSFERRIN RECEPTOR BINDING ANTIBODY-PEPTIDE CONJUGATE” (PEPTIDREAM INC., priority 2021, published 2024):

Target: human transferrin receptor (hTfR) (human), P02786
Assay: SPR of naked peptide on hTfR; B = KD between 1 nM and 100 nM

Chain of human transferrin receptor (hTfR) (human), P02786 (P02786 89-760 limits assumed): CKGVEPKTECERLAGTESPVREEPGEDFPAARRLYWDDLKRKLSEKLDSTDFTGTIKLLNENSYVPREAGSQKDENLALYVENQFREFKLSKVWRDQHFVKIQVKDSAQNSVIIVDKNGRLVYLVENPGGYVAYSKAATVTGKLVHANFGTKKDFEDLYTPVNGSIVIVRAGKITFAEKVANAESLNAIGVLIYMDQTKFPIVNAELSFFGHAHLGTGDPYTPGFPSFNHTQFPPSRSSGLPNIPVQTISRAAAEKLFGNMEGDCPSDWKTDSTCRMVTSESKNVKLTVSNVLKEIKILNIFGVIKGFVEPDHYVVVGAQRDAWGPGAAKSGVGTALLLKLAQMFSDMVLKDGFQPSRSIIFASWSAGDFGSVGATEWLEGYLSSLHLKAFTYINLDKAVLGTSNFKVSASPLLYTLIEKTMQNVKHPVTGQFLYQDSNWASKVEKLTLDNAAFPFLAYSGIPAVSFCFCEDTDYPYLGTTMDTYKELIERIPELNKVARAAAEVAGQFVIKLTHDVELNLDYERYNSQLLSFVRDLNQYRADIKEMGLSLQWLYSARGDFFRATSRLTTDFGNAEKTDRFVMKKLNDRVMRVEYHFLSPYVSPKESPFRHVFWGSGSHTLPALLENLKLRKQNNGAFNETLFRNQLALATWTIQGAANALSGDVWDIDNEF

KD: 1 to 100 nM
Binder: AVFVWNYYIISC (modifications not checked) [naked peptide (1st to 12th amino acids) of SEQ ID NO: 14, peptide 36]
